# Data as given in the nanobody polyreactivity screen of Harvey et al. (2022).
# Experiment: yeast display, Sf9 membrane polyspecificity reagent, FACS + sequencing; frameworks hold sequencing errors
# In short: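 Using colony PCR, genes from sorted yeast display clones were amplified, then sequenced on MiSeq at 2 × 250 and filtered by CDR length. The clones had been stained with 10% biotinylated, detergent-solubilized Sf9 membrane reagent for 1 hour at 4 °C and sorted by FACS into low and high (top ~1%) gates on anti-HA and streptavidin fluorescence. Polyreactivity labels come from the gate of origin.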
row,Sequence,polyreactivity (PSR sort gate)
1,QVQLVESGRGLVQAGGRQRLSSAASGTTFGRYAMGWTRQAPGKQRELVAAISESDGSTYYADSVKGRFTISRDNAKNTVYLQMNSLTPEDTSVYYCAAEWTHYWWYQYDYWGQGTQVTVSS,high polyreactivity
2,QVQLVASGGGLVQAGGSLRLSCSASGSIFKYYAMGWYRQAPGKERELVAAISSSGNTYYADSVKGRFTISRDNAKNTVYLQMNSLKPEDTAVYYCAAGIRRYRTYDYWGQGTQVTVSS,high polyreactivity
3,QVQLEESGGGLVQAGGSLRLSCAASGRTFDRNTMGWYRQAPGKERELVASITSSGASTYYADSVKGRFTISRDNAKNTVYLQINSLKPVDTSVYYCAARTYTGNYSNSKYYYWGQGTEVTVSS,high polyreactivity
4,QVQLVESGGGLVQAGGSLRLSCAACGFSFWRNAMGRTRRAPGKDRELVAAISASGGSTYYADSVKGRFTISRDNATNTVFLQRNSLKPEDTAVYYCAADTQGFYRYDYWGQGTQVTVSS,low polyreactivity
5,QDQHVESGGGLVQAGGSLRLSCAASGFTFSDYALGWYRQAPGKERELVAAISTRGSSTYYADSVKGRFTISRDNAKNTVYLHLNSLKQDYTAVSYCNAVGSYSGYYYWGQGTHVTVSS,high polyreactivity
6,QVQLVESGGGLVQAGGSLRLSCAASGGIVRSNAMGWYRQAPGKERELVAAINRSVRTYYADSVKGRFTISRDNEKNTVYLQMNSLKPEDTAVYYCAAQQGVISRGNYWGQGTQVTVSA,low polyreactivity
7,QVQLVESGGGLVQAGGRLRLSCAASGRIFSYNAMGWYRQAPGKERELVAGITSGGRTYYADSVKGRFTISRDNAKNTVYLLIYSLKPEDTAVYYCGARYVPARSGYYYWGQGTQVTVSS,high polyreactivity
8,QVQLVESGGGLVQAGGSLRLSCAASGITIVRYAMGWYRQAPGKERELVAAINRSGGSTYYADSVKGRFTISRDNAKNTVYLQMNSLKPEDTAVYYCAARLYGKYDPPGYYYWGQGTQVTVSS,high polyreactivity
9,QVQLVESGGGLVQAGRSLRLSCAASGSTSERYDMGWYRQAPGKERELVATITWSGGDTHYADSVKGRFTISRDNAKNSVYLQLNSLKPEDTAVYYCAAEYTFVWGMWYDYWGQGTQVTVSS,low polyreactivity
10,QVQLVESGGGLVQAGGSLRLSCAASGSTLYQYAMGWYRQAPGKERELVAAITKSGGRTYYADSVKGRFTISRDNAKNTVYLQMNSLKPEDTAVYYCNVVRGSYSSGGDYWGQGTQVTVSA,high polyreactivity
11,QVQLVESGGGLVQAGGSLRLSCAASGRIFWDNAMGWYRQAPGKERELVAAIDYRGGNTNYADSVKGRFTISRDNAKNTVYLQMNSLKPEDTAVYYCNAEWAVRYPGYDYWGQGTQVTVSS,low polyreactivity
12,QVQLVESGGGLVQAGGSLRLSRAASGGTFFVYMGWYRQAPGKERELVADISGSGGGTYYADSVKGRFTISRDNAKNTVYLQMNSLKPEDTAVYYCATDVPTGIIRMYWGQGTQVTVSS,low polyreactivity
13,QVQLVESGGGLDQAGGSLRLSCAASGSTIHYYAMGWYRQAPRKERELVAVISSGGSTYYADSVKGRFTISRDNAKNTVYLQMNSLNPEDTAVYYCAKDYRDYNRGWYDYWGQGTQVTVSS,low polyreactivity
14,QVQLVESGGGLVQAGGSLRLSCDASGRIFYANAIGWYRQAPGKEREFVAAITRSGGSTYYADSVKGRFTISRDNAKNTVYLQMNSLKPEETAVYYCAAQGGDVYGWRYYYWGQGTQVTVSS,low polyreactivity
15,QVQLVESGAGLVQAGGSLRLSCAASGRTFSGYAMGGYRQAPGKERELVAAISWRGGRTYYADSVKGRFTISRDNAKNTVYLLMYSLKPEDTAVYYCNTVGHVYYGEFDYWGQGTQVTVSS,high polyreactivity
16,QVQLVESGGGLVQAGGSLRLSCAASGSIFSVYAMGWYRQAPGTERELVAGITRNGGTTYYADSVKGRFTISRDNAKHTVYLQMNSLKPEDTAVYYCAADNGFPEYGVNRVWSRYDYWGQGTQVTVSS,low polyreactivity
17,QVQLVESGGGLVQAGGSLRLSCAASGSIFRSYAMGWYSQAPGKERELVASISRRGGSTYYADSVKGRFTMSRDHAKNTVYLQMNSLKPEDTAVYYCAAVRYNSRVSTTPSEMYYWGQGTQVTVSS,low polyreactivity
18,QVQLVESGGVLVQAGGSLRLSCAASGSTFTYNAMGWYRQAPGKEREFVAANSVGGGITYYADSVKGRFTISRDYAKNTVYLQMKSLKPEDTAVYYCAADGEYPHSEDFEYWGQGTQVTVSS,low polyreactivity
19,QVQLVESGGGLVQAGGSLRLSCAASGSIFYQNAMGWYRQAPGKERELVAAITSSGGSTYYADSVKGRFTISRDNAKNTVYLQMNSLKPEDTAVYYCNKYFSWRPYSYYYWGQGTQVTVSS,high polyreactivity
20,QVQLVESGGGLVQAGGSLRLSCAASGLIFYFYAMGWYRQAPGKERELVAAISSRGGRTYYADSVKGRFTISRDNAKNTVYLQMNSLKPEDTAVYYCNVDQLLRRTSAQGDYWGQGTQVTVSS,high polyreactivity
21,QVQLVESGGGLVQAGGSLRLSCAASGSIFGVYAMGWYIPAPGTERELVAAISRGGSTNDADSVKGRFTISRDNEKNTVYLQMNSLKPEDTAVYYCNAVPVLGGYGYQWGYDYWGQGTKVTVSS,low polyreactivity
